Tests used:
E. coli C41 ΔfadE = type: cell-based; conditions: with 0.05% stearic acid feeding
Procedure: Genomic DNA encoding C. efficiens YS-134 (DSMZ44549) orfCE2459 (SEQ ID NO:6) was cloned into the NcoI and EcoRI sites of vector OP-80 (pCL1920 derivative) under the control of the Ptrc promoter. The resulting construct was then transformed into E. coli C41 ΔfadE.
The cells were grown at 37° C. in M9 minimal media supplemented with 20 μg/mL uracil, 1% glucose (w/v), and 100 μg/mL spectinomycin. When the culture reached an OD600 of 0.8 to 1.0, it was induced with 1 mM IPTG supplemented with 0.5 mM delta-aminolaevulinic acid (heme biosynthesis precursor), and 0.05% stearic acid (as a substrate for orfCE2459). The temperature was shifted to 25° C. and cells were allowed to grow for an additional 18-20 h Cells from 1 mL of culture were resuspended with 100 μL of methanol, sonicated for 30 min, and extracted with 300 μL of ethyl acetate. After vortexing for 15 min, 300 μL of water was added, and the mixture was vortexed for another 15 min before centrifugation at 15,000 rpm for 10 min. The solvent layer was analyzed by GC-MS.
Genomic DNA encoding Kokuria rhizophila DC2201 orfKRH21570 (SEQ ID NO:8), which was codon optimized (SEQ ID NO:9) for expression in E. coli, was cloned into the NdeI and XhoI sites of vector OP-183 (pACYC177 derivative) under the control of the Ptrc promoter. The resulting construct was then transformed into E. coli C41 ΔfadE. The cells were grown, extracted, and analyzed as in described in Example 7.
The genomic DNA encoding Bacillus subtilis fatty acid hydroxylase, Cyp152A1 (SEQ ID NO:13) or P450Bsβ, was cloned into the NdeI and XhoI sites of vector OP-183 (pACYC177 derivative) under the control of the Ptrc promoter. The construct was used as a template to introduce a mutation at position 85 changing the Glu to His using the following primer: GTTAATGCGATTCAcGGAATGGATGGC. The resulting constructs were then transformed into E. coli C41 (ΔfadE). The cells were grown at 37° C. in M9 minimal media supplemented with 20 μg/mL uracil, 1% glucose (w/v), and 100 μg/mL carbenicillin. When the culture reached OD600 of 0.8-1.0, it was induced with 1 mM IPTG; supplemented with 0.5 mM delta-aminolaevulinic acid (heme biosynthesis precursor) and 0.05% stearic acid (as a substrate for Bsb). The temperature was shifted down to 25° C. and cells were allowed to grow for an additional 18-20 h. Cells from 1 mL of culture was resuspended with 100 μL of methanol, sonicated for 30 min, and extracted with 300 μL of ethyl acetate. After vortexing the extract for 15 min, 300 μL of water was added, vortexed for another 15 minutes before centrifugation at 15,000 rpm for 10 minutes. The solvent layer was analyzed by GC-MS.

[1] = Specific activity of α-olefin and α/β-hydroxy fatty acid formation by purified enzymes; type: biochemical; conditions: for specific activity for 1-pentadecene formation: 500 μM H2O2, 200 μM potassium hexadecanoate, pH 7.2, room temperature, comparison between enzymes
Procedure: The specific activity of α-olefin formation as well as α-(2) and β-(3)hydroxy fatty acid formation were determined for ORF880, CYP152A1, and CYP152A1 Q85H (see Examples 12 and 16). An E. coli BL21 strain (DE3) (Invitrogen) was transformed with either pET15b-orf 880, pET15b-cyp152A1, and pET15b-cyp152A1 Q85H using routine chemical transformation techniques. Protein expression was carried out by first inoculating a colony of the E. coli strain in 5 mL of LB media supplemented with 100 mg/L of carbenicillin and shaken overnight at 37° C. to produce a starter culture. This starter culture was used to inoculate 0.5 L of LB media supplemented with 100 mg/L of carbenicillin. The culture was shaken at 37° C. until an OD600 value of 0.6 was reached. The culture was placed on ice for 10 min before IPTG was added to a final concentration of 250 μM. The culture was shaken at 25° C. for approximately 18 h, and then centrifuged at 3,700 rpm for 20 min at 4° C. The pellet was then resuspended in 10 mL of buffer containing 100 mM sodium phosphate buffer at pH 7.2 supplemented with Bacterial ProteaseArrest (GBiosciences). The cells were then sonicated at 12 W on ice for 9 sec with 1.5 sec of sonication followed by 1.5 sec of rest. This procedure was repeated 5 times with one min intervals between each sonication cycle. The cell free extract was centrifuged at 10,000 rpm for 30 min at 4° C. 5 mL of Ni-NTA (Qiagen) was added to the supernatant, and the mixture was gently stirred at 4° C. The slurry was passed over a column removing the resin from the lysate. The resin was then washed with 30 mL of buffer containing 100 mM sodium phosphate buffer at pH 7.2 plus 30 mM imidazole. Finally, the protein was eluted with 15 mL of 100 mM sodium phosphate buffer at pH 7.2 plus 250 mM imidazole. The protein solution was dialyzed with 200 volumes of 100 mM sodium phosphate buffer at pH 7.2 with 20% glycerol. Protein concentration was determined using the Bradford assay (Biorad). 578 μg/mL of ORF880, 865 μg/mL of CYP152A1, and 653 μg/mL of CYP152A1 Q85H protein was obtained.
To determine the specific activity with potassium hexadecanoate, the following reactions were set-up where each time point consisted of 500 μL. Each reaction contained of 500 μM H2O2, 200 μM of potassium hexadecanoate, 100 mM sodium phosphate buffer at pH 7.2, and protein at the following concentrations: ORF880-0.23 or 0.46 μM; CYP152A1-8.65, 17.3, or 34.6 μM; CYP152A1 Q85H-6.53, 13.06, or 26.12 μM. The reactions were carried out at room temperature and time points were taken at 0, 1, 3, 5, 7, 10, 14, and 20 minutes. Reactions were quenched with 50 μL of 12 M HCl and then extracted with 200 μL of ethyl acetate. 50 μL of this extract was then reacted with 50 μL N,O-Bis(trimethylsilyl)trifluoroacetamide with trimethyl-chlorosilane (Aldrich). Samples were analyzed using GC/MS using the following parameters: run time: 20 min; column: HP-5-MS Part No. 190915-433E (length of 30 meters; I.D.: 0.25 mm narrowbore; film: 0.25 μM); inject: 1 μL Agilent 6850 inlet; inlet: 300° C. splitless; carrier gas: helium; flow: 1.3 mL/min; oven temp: 100° C. hold 5 min, 320° C. at 20° C./min, 320° C. hold 5 min; det: Agilent 5975B VL MSD; det. temp: 300° C.; scan: 50-500 M/Z. Calibration curves were generated using 1-pentadecene, α(2)-hydroxyhexadecanoic acid, and β(3)-hydroxyhexadecanoic acid dissolved in ethyl acetate and derivatized as described herein.
Based upon this analysis, product formation was determined to be linear within the first three minutes. The specific activities for each enzyme concentration in the linear range were averaged for a given reaction (e.g., decarboxylation, α-hydroxylation, or β-hydroxylation). FIG. 21 summarizes the results. The specific activity for 1-pentadecene formation was similar for ORF880 and CYP152A1. Mutating the glutamine 85 residue to a histidine increased the specific activity of 1-pentadecene formation (i.e., increased fatty acid decarboxylase activity). […]

[2] = In vitro α-olefin synthesis by purified His-tagged protein with hydrogen peroxide; type: biochemical; conditions: 200 μL purified protein, 200 μM hydrogen peroxide, 200 μM potassium hexadecanoate, room temperature overnight
Procedure: E. coli C41 DE3 (ΔfadE) cells were transformed with pET15b-orfKRH21570 using routine transformation techniques. Protein expression was carried out by first inoculating 5 mL of LB broth supplemented with 100 mg/L carbenicillin with a colony of the E. coli strain which was followed by shaking the cells overnight at 37° C. to produce a starter culture. This starter culture was used to inoculate 0.5 L of LB media supplemented with 100 mg/L of carbenicillin. The culture was shaken at 37° C. until an OD600 value of 0.6 was reached, after which it was induced with 1 mM IPTG and 0.5 mM delta-aminolaevulinic acid. The culture was then shaken at 25° C. for approximately 18 h. The protein was purified as described in Example 12.
To assay the activity of ORF_KRH21570, 200 μL of purified protein was incubated with 200 μM of hydrogen peroxide and 200 μM of potassium hexadecanoate. As a negative control, the same reaction was conducted, but without the addition of either purified protein (100 mM sodium phosphate pH 7.2 was used in its place) or free fatty acid. The reactions were performed in duplicates and incubated at room temperature overnight. […] Trimethylanilinium hydroxide was added to the ethyl acetate layer at a 1:1 ratio and the extracts analyzed by GC/MS using the MAR_splitless_short method. […]

[3] = compared with the wild-type version of CYP152A1

Row | Molecule | α-olefin produced (E. coli C41 ΔfadE) | specific activity for 1-pentadecene formation [1] | rate of α-hydroxyhexadecanoic acid formation [1, 3] | rate of β-hydroxyhexadecanoic acid formation [1, 3] | α-olefin formed from hexadecanoic acid [2]
1 | CYP152A1: Bacillus subtilis fatty acid hydroxylase, NP_388092 (protein, listed as Bacillus subtilis) MNEQIPHDKSLDNSLTLLKEGYLFIKNRTERYNSDLFQARLLGKNFICMTGAEAAKVFYDTDRFQRQNALPKRVQKSLFGVNAIQGMDGSAHIHRKMLFLSLMTPPHQKRLAELMTEEWKAAVTRWEKADEVVLFEEAKEILCRVACYWAGVPLKETEVKERADDFIDMVDAFGAVGPRHWKGRRARPRAEEWIEVMIEDARAGLLKTTSGTALHEMAFHTQEDGSQLDSRMAAIELINVLRPIVAISYFLVFSALALHEHPKYKEWLRSGNSREREMFVQEVRRYYPFGPFLGALVKKDFVWNNCEFKKGTSVLLDLYGTNHDPRLWDHPDEFRPERFAEREENLFDMIPQGGGHAEKGHRCPGEGITIEVMKASLDFLVHQIEYDVPEQSLHYSLARMPSLPESGFVMSGIRRKS | 1-heptadecene | similar | – | – | –
2 | CYP152A1 Q85H (protein, UniProt O31440 1-417, looked up, variant Q85H) Fatty-acid peroxygenase: MNEQIPHDKSLDNSLTLLKEGYLFIKNRTERYNSDLFQARLLGKNFICMTGAEAAKVFYDTDRFQRQNALPKRVQKSLFGVNAIHGMDGSAHIHRKMLFLSLMTPPHQKRLAELMTEEWKAAVTRWEKADEVVLFEEAKEILCRVACYWAGVPLKETEVKERADDFIDMVDAFGAVGPRHWKGRRARPRAEEWIEVMIEDARAGLLKTTSGTALHEMAFHTQEDGSQLDSRMAAIELINVLRPIVAISYFLVFSALALHEHPKYKEWLRSGNSREREMFVQEVRRYYPFGPFLGALVKKDFVWNNCEFKKGTSVLLDLYGTNHDPRLWDHPDEFRPERFAEREENLFDMIPQGGGHAEKGHRCPGEGITIEVMKASLDFLVHQIEYDVPEQSLHYSLARMPSLPESGFVMSGIRRKS | capable of carrying out this reaction | increased | lowered | increased | –
3 | orf_Mpop1292: ORF880 homolog P450 enzyme from Methylobacterium populi, ZP_02200540 (protein, listed as Methylobacterium populi) MPAAIATHRFRKARTLPREPAPDSTLALLREGYGFIRNRCRRHDSDLFAARLLLSPVICMSGAEAARHFYDGHRFTRRHALPPTSFALIQDHGSVMVLDGAAHLARKAMFLSLVGEEALQRLAGLAERHWREAVSGWARKDTVVLLDEAHRVLTAAVCEWVGLPLGPTEVDARAREFAAMIDGTGAVGPRNWRGHLYRARTERWVRKVIDEIRSGRRDVPPGAARTIAEHQDADGQRLDRTVAGVELINVLRPTVANARYIVFAAMALHDHPHQRAALADGGEAAERFTDEVRRFYPFIPFIGGRVRAPFHFGGHDFREGEWVLMDLYGTNRDPRLWHEPERFDPDRFARETIDPFNMVSHGAGSARDGHRCPGEGITRILLRTLSRQLAATRYTVPPQDLTLDLAHVPARPRSGFVMRAVHAP | – | – | – | – | 1-pentadecene

Reference: US8597922B2, “Methods and compositions for producing olefins” (LS9, Inc., priority 2007, dated 2013)
